Here are results for 167 variants from the RNAGym collection of RNA variant scans (doi:10.7554/elife.90254).

First the molecules themselves.
B1: LINE1-full (parent)
chain: UACGUAGGUGGUUUUCCCCUGAUAGUGCUAAGGGGGCCUGGAAGUUUGGACUGGGCAGAGCUCAACACAGCGUGGCAAAGUGGCUGUGGCUAGACUGCCUCUCUGGAUUCCUCGUCACUCAGCAGGGCAUCUCUGAGAGAAAUGCC

Variants of B1 are the subject of the data set. Put plainly: self-cleavage, relative activity (ratio to wild type); higher = more cleavage; in vitro, sequencing; the parent is a self-cleaving ribozyme.
In the case of A107G A117C, the self-cleavage was determined as 0.66.

Consider U100C A107C, for which the self-cleavage came to 2.87.

As for U102C C118U, the self-cleavage is 1.59.

Regarding A107U G144A, the self-cleavage is 1.79.

With U104A U112C, the self-cleavage was 1.32.

With U104A U112A, the self-cleavage is 1.4.

As for U102C G114U, the self-cleavage is 1.62.

Consider U102C G114A, for which the self-cleavage stood at 1.21.

For A107G C131U, the self-cleavage stood at 1.83.

As to U102C U112C, the self-cleavage is 1.53.

With U102C U112A, the self-cleavage came out at 1.44.

As for U102C U112G, the self-cleavage was determined as 1.15.

A107C U109C: the self-cleavage came out at 2.7.

Take U102A G114A: the self-cleavage worked out at 1.57.

Take U104C G144A: the self-cleavage came out at 2.03.

For the variant U100C C110A, the self-cleavage was 1.77.

Take G106U A129G: the self-cleavage worked out at 0.98.

Turning to U102A A121U, the self-cleavage amounted to 1.44.

With U102A A129G, the self-cleavage was 1.72.

For the variant C103A U112C, the self-cleavage was 1.01.

For C103A U112G, the self-cleavage came out at 0.72.

Take A107G A136G: the self-cleavage worked out at 1.31.

Consider U100A G139U, for which the self-cleavage is 0.31.

For the variant U108A U132C, the self-cleavage turned out to be 1.65.

Take U108A U132A: the self-cleavage worked out at 1.24.

For the variant U108A U130C, the self-cleavage worked out at 1.51.

In the case of U102G A121G, the self-cleavage was 0.59.

On to U104G C123U, for which the self-cleavage is 1.25.

U102C A140G: the self-cleavage is 1.45.

Regarding U102C A140U, the self-cleavage worked out at 1.48.

Turning to U104A A107G, the self-cleavage amounted to 0.9.

On to U108A U115A, for which the self-cleavage is 0.6.

Turning to U100C A142C, the self-cleavage was found to be 2.2.

As for A107G A141G, the self-cleavage was determined as 1.64.

As to A107G A141C, the self-cleavage was found to be 1.51.

Turning to U108C G126A, the self-cleavage came to 2.16.

As for U102A G125A, the self-cleavage stood at 1.51.

As for U104C A117U, the self-cleavage worked out at 1.73.

For U100G U130C, the self-cleavage worked out at 2.21.

Turning to U108G A140G, the self-cleavage was 0.29.

On to U102C A124G, for which the self-cleavage was 1.11.

Take U102A U143A: the self-cleavage is 1.08.

As to U102A U143C, the self-cleavage turned out to be 1.25.

Turning to C101A U134G, the self-cleavage turned out to be 1.8.

In the case of U108A U119A, the self-cleavage is 0.96.

Consider U108A U119C, for which the self-cleavage came to 1.41.

As for U104C U108A, the self-cleavage stood at 2.04.

Regarding A107G U109A, the self-cleavage came out at 1.83.

In the case of U104A G122C, the self-cleavage stood at 1.48.

On to G105A U115C, for which the self-cleavage is 1.54.

Turning to A107C U108A, the self-cleavage amounted to 1.36.

On to U102A G105U, for which the self-cleavage worked out at 1.09.

In the case of C103A G135A, the self-cleavage is 0.87.

Turning to C101U U130C, the self-cleavage is 1.54.

As for A107U A124U, the self-cleavage worked out at 1.61.

Regarding A107U A124G, the self-cleavage came to 1.29.

As to C103U U119C, the self-cleavage was determined as 1.7.

As to G105A A117U, the self-cleavage is 1.74.

Take G105A A117G: the self-cleavage is 1.59.

As to U108C A129U, the self-cleavage turned out to be 1.89.

U108C A129C: the self-cleavage was 1.69.

Take U108C A129G: the self-cleavage is 1.57.

On to U108A G114A, for which the self-cleavage stood at 1.09.

Turning to U102C G144C, the self-cleavage worked out at 1.17.

As to U102C G144A, the self-cleavage was found to be 1.15.

Consider C103A A129G, for which the self-cleavage came out at 1.59.

For C103U A140G, the self-cleavage is 1.44.

Take C101U U108C: the self-cleavage is 1.37.

Consider U100C A129G, for which the self-cleavage is 1.99.

As to U102C G106A, the self-cleavage was 1.19.

With U104A A117U, the self-cleavage was 1.31.

In the case of U100C G127A, the self-cleavage was found to be 1.9.

Take U100C G127U: the self-cleavage stood at 1.84.

As to U100A U112C, the self-cleavage worked out at 1.09.

In the case of U100A U112A, the self-cleavage was found to be 0.91.

C101U G114A: the self-cleavage was determined as 1.37.

U100C A124U: the self-cleavage was 2.22.

As to U100C A124G, the self-cleavage amounted to 1.32.

Consider U100C C146U, for which the self-cleavage was determined as 1.71.

Consider G105U U108C, for which the self-cleavage turned out to be 1.98.

With G105U U108A, the self-cleavage turned out to be 1.12.

U100C U112A: the self-cleavage was determined as 1.74.

C103U G114A: the self-cleavage is 1.19.

For U104C A138U, the self-cleavage came to 1.87.

On to U104C A138G, for which the self-cleavage amounted to 1.87.

For the variant G106A G135U, the self-cleavage was 1.88.

In the case of U100C U108A, the self-cleavage is 1.42.

For U104A U108C, the self-cleavage was determined as 1.14.

Take C103U A117C: the self-cleavage stood at 2.49.

As for C103U A117G, the self-cleavage came out at 1.41.

As for U100C C118A, the self-cleavage was found to be 2.

As to U104A A140G, the self-cleavage was determined as 0.47.

As for U100G A142G, the self-cleavage is 1.01.

Regarding U109A C111U, the self-cleavage turned out to be 1.56.

With A107U, the self-cleavage came out at 1.46.

As for A107G, the self-cleavage came out at 1.46.

Take A107C: the self-cleavage came to 1.56.

Consider C101U U102G, for which the self-cleavage came to 0.3.

Regarding U104C, the self-cleavage was 1.65.

Regarding U104A, the self-cleavage came out at 1.14.

With U104G, the self-cleavage was found to be 1.19.

As to U102C A129U, the self-cleavage was determined as 1.22.

U108A G122U: the self-cleavage worked out at 0.97.

With U102C U143C, the self-cleavage turned out to be 1.09.

Regarding U102C U143G, the self-cleavage is 1.59.

For U108A C133A, the self-cleavage was 1.42.

As for U104A U119C, the self-cleavage is 1.47.

Regarding U104A U119G, the self-cleavage worked out at 0.64.

In the case of U108G U143C, the self-cleavage worked out at 1.14.

Consider U100C C113U, for which the self-cleavage stood at 1.7.

Take U104A G114U: the self-cleavage stood at 1.09.

As to U108A A124U, the self-cleavage worked out at 1.35.

For the variant C101U A107G, the self-cleavage was 1.73.

In the case of U104C A121G, the self-cleavage is 1.56.

Turning to U104C A121U, the self-cleavage was found to be 1.59.

U102C U104G: the self-cleavage turned out to be 1.6.

For the variant U102C U104C, the self-cleavage stood at 0.95.

For the variant A107G A138U, the self-cleavage came out at 1.44.

As for U104A U134A, the self-cleavage is 1.35.

Consider U104A U134C, for which the self-cleavage came out at 1.53.

A107G A142G: the self-cleavage was found to be 1.83.

Take U102A U134A: the self-cleavage was found to be 1.06.

Take U108C G139A: the self-cleavage is 0.

For the variant U100C U132A, the self-cleavage was determined as 2.37.

On to U100G A107G, for which the self-cleavage was 1.31.

With U104A A142G, the self-cleavage worked out at 1.43.

Take U104C G135A: the self-cleavage came to 1.52.

Regarding U108C U132A, the self-cleavage worked out at 2.04.

Regarding U108C U132C, the self-cleavage stood at 1.83.

On to C103A A140G, for which the self-cleavage worked out at 1.23.

In the case of G106A U115C, the self-cleavage is 1.43.

As to G105U A124U, the self-cleavage stood at 0.22.

On to G106U A117U, for which the self-cleavage was 1.26.

Turning to A107G U130A, the self-cleavage is 1.74.

For the variant A107G U130G, the self-cleavage came out at 1.15.

On to U100C U109A, for which the self-cleavage is 1.77.

In the case of U100C U109C, the self-cleavage was 1.37.

In the case of U104G A140C, the self-cleavage worked out at 0.28.

For the variant U108A, the self-cleavage is 1.24.

For the variant U108G, the self-cleavage came out at 1.5.

With U108C, the self-cleavage was 1.64.

For the variant A107G G127A, the self-cleavage came out at 1.81.

As for A107G G127C, the self-cleavage was 1.72.

Consider C103A A138G, for which the self-cleavage was determined as 1.6.

U104C U115A: the self-cleavage amounted to 0.22.

With A107G A124U, the self-cleavage is 1.27.

Take C101A U115A: the self-cleavage was found to be 1.36.

Consider U100A U132A, for which the self-cleavage turned out to be 0.31.

Turning to U102C U109A, the self-cleavage came to 1.31.

Consider U104A U130C, for which the self-cleavage was 1.51.

Consider U102C C116U, for which the self-cleavage came to 1.72.

Turning to A107U U132A, the self-cleavage was determined as 1.88.

Take U100A U115A: the self-cleavage worked out at 0.72.

In the case of U102C C128A, the self-cleavage is 0.39.

As for U102C C128U, the self-cleavage was found to be 1.67.

Take U109A A138G: the self-cleavage turned out to be 0.7.

Take A107U A117C: the self-cleavage was 2.32.

G105A A142G: the self-cleavage is 1.24.

Consider U104G U130A, for which the self-cleavage turned out to be 0.

With U104A A124U, the self-cleavage is 1.25.

On to G105U G144A, for which the self-cleavage came to 1.31.

Consider C101U A124G, for which the self-cleavage came out at 2.06.

For U102G A129G, the self-cleavage came to 0.88.

Take C103U A138U: the self-cleavage is 1.07.

Regarding C103U A138G, the self-cleavage turned out to be 1.49.

As to A107C U143C, the self-cleavage is 1.67.

In the case of U109A A129U, the self-cleavage came out at 2.02.
